Reference: patent publication US20250186597A1, “TARGETED IMMUNE ACTIVATION WITH IL-18 IMMUNOCYTOKINES” (BRIGHT PEAK THERAPEUTICS AG, priority 2023, published 2025)

What was measured:
human PD-L1/B7-H1 = target: T1, human PD-L1/B7-H1 (Homo sapiens, UniProt Q9NZQ7); assay: PD-L1 binding ELISA assay (Example 5); conditions: biotinylated human PD-L1
T1 construct: purchased ACROBiosystems PD1-H82E5-25UG
Method: The interaction of the unmodified antibodies and corresponding IL-18 immunocytokines with relevant immune cell associated antigen are measured by ELISA assay. For these studies, Corning high-binding half-area plates (Fisher Scientific, Reinach, Switzerland) are coated overnight at 4° C. with 25 μl of unmodified antibodies corresponding IL-18 immunocytokines at […] in PBS. […] Plate surfaces are blocked with 25 μl of PBS-0.02% Tween20-1% BSA at 37° C. during 1 h. […] ELISA signal is then measured at 450 nm on an ENSPIRE® plate reader from Perkin Elmer (Schwerzenbach, Switzerland).

[1] = target: T2, human Fc gamma receptors IIb (FcγRIIb/CD32b) (Homo sapiens, UniProt P31994); assay: Human FcγR binding ELISA, FcγRIIb/CD32b (Example 8); conditions: ELISA binding affinity
T2 construct: purchased R&D systems AVI1875-050
T2 sequence (P31994 43-310): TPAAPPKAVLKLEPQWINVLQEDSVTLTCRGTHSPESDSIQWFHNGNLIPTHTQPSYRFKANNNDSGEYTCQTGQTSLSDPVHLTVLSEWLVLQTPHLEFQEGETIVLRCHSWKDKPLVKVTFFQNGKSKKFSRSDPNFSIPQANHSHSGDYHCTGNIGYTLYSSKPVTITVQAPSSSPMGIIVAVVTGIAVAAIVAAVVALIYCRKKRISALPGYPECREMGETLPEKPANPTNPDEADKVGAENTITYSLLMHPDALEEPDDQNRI
Method: (§1) The interaction of the unmodified and of conjugated antibodies with human Fc gamma receptors I (FcγRI/CD64), with human Fc gamma receptors IIa (FcγRIIa/CD32a), with inhibitory human Fc gamma receptors IIb (FcγRIIb/CD32b), and with human Fc gamma receptors III FcγRIIIa/CD16 were measured by ELISA.
(§2) Briefly, Corning high-binding half-area plates (Fisher Scientific, Reinach, Switzerland) were coated overnight at 4° C. with 25 μl of unmodified and of conjugated anti-PD1 antibodies at 2.5 μg/ml in PBS. […] Plates surfaces were blocked with 25 μl of PBS-0.02% Tween20-1% BSA at 37° C. during 1 h. […] Twenty-five microliters of a 1/500 HRP-anti-His antibody in PBS—0.02% Tween20—0.1% BSA (R&D systems, anti-HIS—HRP Ab, #MAB050H) were added to each well and plates were incubated at Room Temperature during 1 h. […] ELISA signal was then measured at 450 nm on an EnSpire plate reader from Perkin Elmer (Schwerzenbach, Switzerland).

[2] = target: T3, human neonatal Fc receptor (FcRn) (Homo sapiens, UniProt P55899); assay: Human FcRn binding AlphaLISA at pH 6 (Example 9)
T3 construct: purchased Perkin Elmer AL3095C
Method: The interaction of the unmodified and of conjugated anti-PD1 antibodies with the human neonatal Fc receptor (FcRn) at pH 6 was measured using the AlphaLISA® Human FcRn Binding Kit (AL3095C) from Perkin Elmer (Schwerzenbach, Switzerland). […] When reference IgG binds to FcRn, donor and acceptor beads come into proximity enabling the transfer of singlet oxygen that trigger a cascade of energy transfer reactions in the acceptor beads, resulting in a sharp peak of light emission at 615 nm. Addition of a free IgG antibodies into the AlphaLISA® mixture creates a competition for the binding of FcRn to the reference antibody resulting in a loss of signal.
After 90 min at 23° C. in the dark, AlphaLISA® signal was measured on an EnSpire plate reader (Excitation at 680 nm, Emission at 615 nm) from Perkin Elmer (Schwerzenbach, Switzerland).

[3] = target: T4, human Fc gamma receptors I (FcγRI/CD64) (Homo sapiens, UniProt P12314); assay: Human FcγR binding ELISA, FcγRI/CD64 (Example 8); conditions: ELISA binding affinity
T4 construct: purchased R&D systems 1257-FC-050
T4 sequence (P12314 16-374): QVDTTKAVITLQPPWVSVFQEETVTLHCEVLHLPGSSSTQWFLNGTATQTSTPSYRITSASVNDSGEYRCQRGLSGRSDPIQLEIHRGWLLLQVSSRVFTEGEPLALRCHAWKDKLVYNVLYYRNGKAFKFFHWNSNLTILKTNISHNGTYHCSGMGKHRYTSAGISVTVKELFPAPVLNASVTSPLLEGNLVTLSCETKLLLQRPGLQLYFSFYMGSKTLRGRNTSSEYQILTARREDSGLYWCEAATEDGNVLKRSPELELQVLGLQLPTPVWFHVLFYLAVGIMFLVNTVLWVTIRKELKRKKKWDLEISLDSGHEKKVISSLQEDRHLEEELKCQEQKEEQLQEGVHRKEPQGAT
Method: as §1, §2

human PD1 = target: T5, human PD1 (Homo sapiens, UniProt Q15116); assay: Binding kinetics to PD-1 by Bio-Layer Interferometry (Example 6); conditions: BLI, His-tagged human PD1
T5 construct: purchased R&D #8986-PD
T5 sequence (Q15116 25-288): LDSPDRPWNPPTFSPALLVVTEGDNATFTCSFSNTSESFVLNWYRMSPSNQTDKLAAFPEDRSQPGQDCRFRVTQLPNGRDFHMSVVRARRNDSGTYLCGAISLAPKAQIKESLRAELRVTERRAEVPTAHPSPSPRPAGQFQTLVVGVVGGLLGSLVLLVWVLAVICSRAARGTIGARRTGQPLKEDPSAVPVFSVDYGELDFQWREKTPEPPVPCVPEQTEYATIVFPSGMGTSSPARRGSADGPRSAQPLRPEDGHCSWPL
Excerpt: Based on Bio-Layer Interferometry (BLI), Octet® BLI systems enable real-time, label-free analysis for the determination of kinetics and affinity of a ligands to its receptor. Here anti-human IgG FC Capture (AHC) sensors are loaded with the test items (ICs). Sensors are first dipped into a kinetic buffer for baseline measurement, then into an analyte solution, here human PD1, to allow association and again into a buffer solution where the analyte is allowed to come off the ligand (dissociation). Several concentrations of analyte are run in parallel and enable the calculation of affinity parameters: Ka, Kd, KD.
Typically, first, the sensors are regenerated by 3 cycles of dipping into 10 mM glycine solution at pH=2 for 20 seconds, followed by 20 second kinetics buffer and a final 60 seconds in kinetics buffer to establish the initial signal (baseline). Second, the loading column will contain the ligand, here the unmodified PD-1 antibodies and of IL-18 polypeptide conjugated PD-1 antibody, at a fixed concentration determined in the loading scout experiment (20 ug/mL). Then another wash/baseline step allows non immobilized proteins to be washed away. […] After acquisition, the data is analyzed with Data Analysis Studio software (Sartorius). […] Group fitting is then applied to the data series and kinetics parameters are calculated.

[4] = target: T6, human Fc gamma receptors IIa (FcγRIIa/CD32a) (Homo sapiens, UniProt P12318); assay: Human FcγR binding ELISA, FcγRIIa/CD32a (Example 8); conditions: ELISA binding affinity
T6 construct: purchased R&D systems 9595-CD-050
T6 sequence (P12318 34-317): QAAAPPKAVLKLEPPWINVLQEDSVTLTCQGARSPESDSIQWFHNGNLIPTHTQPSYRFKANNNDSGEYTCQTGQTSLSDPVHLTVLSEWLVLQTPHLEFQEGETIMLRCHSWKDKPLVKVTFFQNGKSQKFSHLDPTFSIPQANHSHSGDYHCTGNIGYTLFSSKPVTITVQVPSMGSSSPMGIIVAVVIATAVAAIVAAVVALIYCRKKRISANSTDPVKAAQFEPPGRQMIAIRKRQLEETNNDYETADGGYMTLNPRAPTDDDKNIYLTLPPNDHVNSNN
Method: as §1, §2

[5] = target: T7, human Fc gamma receptors III FcγRIIIa/CD16 (Homo sapiens, UniProt P08637); assay: Human FcγR binding ELISA, FcγRIIIa/CD16 (Example 8); conditions: ELISA binding affinity
T7 construct: purchased R&D systems 4325-FC-050
T7 sequence (P08637 17-254): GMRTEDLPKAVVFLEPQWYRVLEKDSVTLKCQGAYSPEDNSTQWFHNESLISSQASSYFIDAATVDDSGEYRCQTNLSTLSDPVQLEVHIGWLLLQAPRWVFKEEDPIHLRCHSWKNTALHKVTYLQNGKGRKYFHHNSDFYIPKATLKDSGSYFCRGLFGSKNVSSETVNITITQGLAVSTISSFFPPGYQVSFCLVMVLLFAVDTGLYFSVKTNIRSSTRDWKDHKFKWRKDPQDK
Method: as §1, §2

T1 sequence (Q9NZQ7 19-290): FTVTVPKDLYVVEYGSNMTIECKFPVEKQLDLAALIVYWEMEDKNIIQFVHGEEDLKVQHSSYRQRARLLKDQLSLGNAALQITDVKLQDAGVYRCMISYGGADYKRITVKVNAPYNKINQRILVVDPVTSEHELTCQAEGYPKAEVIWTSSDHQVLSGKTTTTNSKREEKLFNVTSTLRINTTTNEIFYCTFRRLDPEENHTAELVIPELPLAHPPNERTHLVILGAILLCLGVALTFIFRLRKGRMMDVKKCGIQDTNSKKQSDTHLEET

Kd (human PD-L1/B7-H1): > 100 nM
Kd [1]: 2630 nM
Kd [2]: 6 nM
Kd [3]: 0.315 nM
ka (human PD1): 342000 M⁻¹ s⁻¹
kd (human PD1): 0.0077 s⁻¹
Kd [4]: 1350 nM
Kd [5]: 1710 nM
Substance: LZM-009: anti-PD-1 antibody, VH SEQ ID NO: 376, VL SEQ ID NO: 377 [reference compound]
